# Experimental data from patent US20230040275A1, “SECRETABLE PROTEIN INDUCED IMMUNE TOLERIZATION AND TREATMENT OF AUTOIMMUNE, ALLERGIC AND OTHER DISEASES AND DISORDERS” (SPARK THERAPEUTICS, INC., priority 2019, published 2023).
# B1: full-length MOG: full-length myelin oligodendrocyte glycoprotein expressed from plasmids with WT, Sp7 or HC7s leader sequences (protein, UniProt Q16653 1-247, looked up)
# chain: MASLSRPSLPSCLCSFLLLLLLQVSSSYAGQFRVIGPRHPIRALVGDEVELPCRISPGKNATGMEVGWYRPPFSRVVHLYRNGKDQDGDQAPEYRGRTELLKDAIGEGKVTLRIRNVRFSDEGGFTCFFRDHSYQEEAAMELKVEDPFYWVSPGVLVLLAVLPVLLLQITVGLIFLCLQYRLRGKLRAEIENLHRTFDPHFLRVPCWKITLFVIVPVLGPLVALIICYNWLHRRLAGQFLEELRNPF
# modifications: full-length
# System: Huh7 cells
# Experiment: Plasma membrane retention of full-length MOG in transformed Huh7 cells
# Format: cell-based
# Settings: 72 hr post-transfection, leaders WT, Sp7, HC7s
# Method: To examine the secretability of the full-length MOG protein the plasma membrane and cell lysate and media of transformed Huh7 cells were examined for MOG expression. Huh7 cells were grown to ˜80% confluency and transformed using plasmids expressing full-length myelin oligodendrocyte glycoprotein (MOG) with various leader sequences: Wildtype (WT; native MOG leader), human chymotrypsinogen B2 signal peptide (“Sp7”; 18 amino acid signal peptide of NCBI reference sequence NP_001020371), or a combination of WT with the heavy chain 7 sequence (HC7s; Haryadi et al., PloS ONE 10(2): e0116878. doi:10.1371/journal.pone.0116878 (2015)). Cells and media were harvested 72 hr post-transfection. Plasma membrane fractions from cells were enriched as described (Nishiumi et al., Biosci. Biotechnol. Biochem. 71 (9), 2343-2346, (2007)) Briefly, cells were harvested in modified Buffer A (50 mM Tris, 0.5 mM DTT) with protease inhibitors (cOmplete™ tablets, Roche) and 0.1% Triton X100. The cells were sheared by passage through a 25-gauge needle; 3 times. The homogenate was centrifuged for 10 min at 1000×g at 4° C. The supernatant was harvested as post-plasma membrane (PPM) fraction. […] Standard WES parameters were used, and samples were analyzed on Compass Software (ProteinSimple).
molecule,measurement,setting,value
B1,localisation of full-length MOG (plasma membrane vs cell lysate and media),,retained in the plasma membrane
same,localisation of full-length MOG (plasma membrane vs cell lysate and media),listed as Mature MOG,enriched in the plasma membrane
